The values below come from the nanobody polyreactivity screen of Harvey et al. (2022).

The series can be described thus: yeast display, Sf9 membrane polyspecificity reagent, FACS + sequencing; frameworks hold sequencing errors. The essentials: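 A nanobody's polyreactivity label depends on the gate it was sorted from. Yeast display cells were stained with 10% biotinylated, detergent-solubilized Sf9 membrane reagent for 1 hour at 4 °C, enriched on streptavidin microbeads and sorted by FACS. The low and high (top ~1%) gates were set on anti-HA fluorescence for expression and streptavidin fluorescence for reagent binding.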
For the sequence “QVQLVESGGGLVQAGGSLRLSCAASGFIFDVYAMGWYRQAPGKERELVAAITSGDGTNYADSVKGRFTISRDNAKNTVYLQMNSLKPEDTAVYYCAADDGVTYRGIIFSYWGQGTQVTVSS”, the “polyreactivity (PSR sort gate)” value was “low polyreactivity”.

For “QVQLVESGGGLVQAGGSLRLSCAASGFIFDWNTMGWYRQAPGKERELVAAITESSGSTYYADSVKGRFTISRDNAKNTVYLQMNSLKPEDTAVYDCAADFSYVYYLYDYWGQGTQVTVSS”, the “polyreactivity (PSR sort gate)” value is “low polyreactivity”.

Consider “QVQLVESGGGLVQAGGSLRLSCAASGFIFDWNTMGWYRQAPGKERELVAAITESSGSTYYADSVKGRFTISRDNAKNTVYLQMNSLKPEDTAVYYCAADLDVYVSIGSRFHFDYWGQGTQVTVSS”, for which the “polyreactivity (PSR sort gate)” value is reported as “low polyreactivity”.

On to “QVQLVESGGGLVQAGGSLRLSCAASGFIFDWNTMGWYRQAPGQERELVAAITESSGSTYYADSVKGRFTISRDNAKNTVYLQMNSLKPEDTAVYYCAAESLISWRYDYWGQGTQVTVSS”, for which the “polyreactivity (PSR sort gate)” value is “low polyreactivity”.

Turning to “QVQLVESGGGLVQAGGSLRLSCAASGFIFDWYTMGWYRQAPGKERELVAAITIGGSTDYADSVKGRFTISRDNAKNTVYLLMNSLKPEDTAVYYCNALWYLSGTWYDYWGQGTQVTVSS”, the “polyreactivity (PSR sort gate)” value was “low polyreactivity”.

Regarding “QVQLVESGGGLVQAGGSLRLSCAASGFIFDYYAMGWYRQAPGKERELVAAITSRSGSTYYADSVKGRFTISRDNAKNTVYLQMNSLKPEDTAVYYCAAVYPDYSSARYDYWGQGTQVTVSS”, the “polyreactivity (PSR sort gate)” value was “high polyreactivity”.

As to “QVQLVESGGGLVQAGGSLRLSCAASGFIFEDYAMGWYTQATGKERELVAAITWRGGRTYYADSVKGRFTISRDNAKNTVYLQMNSLKPEDTAVYYCRPQVYSYASRYGYWGQGTQVTVLS”, the “polyreactivity (PSR sort gate)” value is recorded as “low polyreactivity”.

As for “QVQLVESGGGLVQAGGSLRLSCAASGFIFEGYAMGWYRQAPGKERELVAAISRGGGSTYYADSVKGRFTISRDNAKNTVYLQMNSLKPEDTAVYSCATGGYYHYTGVKMYYWGQGTQVTVSS”, the “polyreactivity (PSR sort gate)” value was “high polyreactivity”.

“QVQLVESGGGLVQAGGSLRLSCAASGFIFEKYTMGWYRQAPGKERELVAAITWNGGSTYYADSVKGRFTISRDNAKNTVYLQMNSLKPEDTAVYYCAARVGWNKRRYDYWGQGTQVNVSS”: the “polyreactivity (PSR sort gate)” value was “low polyreactivity”.

On to “QVQLVESGGGLVQAGGSLRLSCAASGFIFETYVMGWYRQAPGKVRALVAAISGGGSTYYADSVKGRFTMSRDNAKNTVYLQMNSLKPEDTAVYYCAAGSWRARSYYHYYYWGQGTQVTVSS”, for which the “polyreactivity (PSR sort gate)” value is “high polyreactivity”.

With “QVQLVESGGGLVQAGGSLRLSCAASGFIFEWNGMGWYRQAPGKERELVAAITWSGGSTYYADSVKGRFTISRDNAKYTVYLHMNSLKPEDTAVYYCAADFPEYYLPYDYWGQGTQVTVSS”, the “polyreactivity (PSR sort gate)” value is reported as “low polyreactivity”.

As for “QVQLVESGGGLVQAGGSLRLSCAASGFIFEWYAMGWYRQAPGKERELVAGIDSGSTYADSVKGRFTISRDNAKNTVYLQMNSLKPEDTAVYYCAKRSDAVIQRTYRYDYWGQGTQVTVSS”, the “polyreactivity (PSR sort gate)” value was “low polyreactivity”.

For the sequence “QVQLVESGGGLVQAGGSLRLSCAASGFIFEYYAMGWYRQAPGKERELVAAINGGGGNTYYADSVKGRFTISRDNAKNTVYLQMNSLKPEDTAVYYCNAKRRKYRYDYWGQGTEVTVSS”, the “polyreactivity (PSR sort gate)” value is reported as “high polyreactivity”.

“QVQLVESGGGLVQAGGSLRLSCAASGFIFEYYAMGWYRQAPGKERELVAAISSSGGSTYYADSVKGRFTISRDNAKNTVYLQMNSLKPEDTAVYYCAKDYAPSATKLHYWGQGTQVTVSS”: the “polyreactivity (PSR sort gate)” value was “low polyreactivity”.

With “QVQLVESGGGLVQAGGSLRLSCAASGFIFFKYAMGWYRQAPGKERELVAGITSGGSTYYADSVKGRFTISRDNAKNTVYLQMNSLKPEDTAVYYCAAYVKRESAPYGYWGQGTQVTVSS”, the “polyreactivity (PSR sort gate)” value is recorded as “low polyreactivity”.

For the sequence “QVQLVESGGGLVQAGGSLRLSCAASGFIFFLNAMGWYRQAPGKERELVAAISSSGGRTYYADSVKGRFTISRDNAKNTVYLQMNSLKPEDTAVYYCNAVTLYRSRTDGYWGQGTQVTVSS”, the “polyreactivity (PSR sort gate)” value is given as “high polyreactivity”.

As to “QVQLVESGGGLVQAGGSLRLSCAASGFIFFQNAMGWYRQAQGKERELVAAISRRGGSTYYADSVKGRFTISRDNAKNTVYLQMNSLKPEDTAVYYCAARSRGDLASLYTGDYWGQGTQVTVSS”, the “polyreactivity (PSR sort gate)” value was “low polyreactivity”.

Take “QVQLVESGGGLVQAGGSLRLSCAASGFIFFRYDMAWYRQAPGKERELVAVITSSGSTNYADSVKGRFTISRDNAKNTVYLQMNSLKPEDTAVYYCNARGYWTWYRGYRMDYWGQGTQVTVSS”: the “polyreactivity (PSR sort gate)” value is listed as “high polyreactivity”.

Regarding “QVQLVESGGGLVQAGGSLRLSCAASGFIFFSYAMGWYRQAPGKEREFVASISGRTGSTYYADSVKGRFTISRDNAKNTVYLQMNSLKPEDTAVYYCNARIVHSFRYDYWGQGTQVNVSS”, the “polyreactivity (PSR sort gate)” value was “low polyreactivity”.

“QVQLVESGGGLVQAGGSLRLSCAASGFIFFVNAMGWSRQAPGKEREFVATITGSGGSTYYADSVKGRFTISRDNAKNTVYLQMNSLKPEDTAVYYCAADSLTPKSASDYWGQGTQVTVSS”: the “polyreactivity (PSR sort gate)” value is on record as “low polyreactivity”.

Take “QVQLVESGGGLVQAGGSLRLSCAASGFIFFVNAMGWYRQAPGKEREFVATITGSGGSKYYADSVKGRFTISRDIAKNTVYLQMISLKPEDTAVYYCNAETYIVLRGKFPVEYDYWGQGTQVTVSS”: the “polyreactivity (PSR sort gate)” value was “low polyreactivity”.

As to “QVQLVESGGGLVQAGGSLRLSCAASGFIFFYYAMGWYRQAPGKERELVAAITKNGGRTYYADSVKGRFTISRDNAKNTVYLQMNSLKPEDTAVYYCNKVKGQGGYYGYDYWGQGTQVTVSS”, the “polyreactivity (PSR sort gate)” value is recorded as “high polyreactivity”.

On to “QVQLVESGGGLVQAGGSLRLSCAASGFIFGDYAMGWYRQAPGKERELVAAINRGASTYYADSVKGSFTISRDNPKNTVYLQMNSLTPEDTAVYYCAAAGNSRGGRGGYWGQGTQVSVSS”, for which the “polyreactivity (PSR sort gate)” value was “high polyreactivity”.

In the case of “QVQLVESGGGLVQAGGSLRLSCAASGFIFGDYAMGWYRQAPGKERELVAAISRSGGRTYYADSVKGRFTISRDNAKNTVYLQMNSLKPEDTAVYDCAKSCLNIYDYWGQVTQVTVSS”, the “polyreactivity (PSR sort gate)” value is “high polyreactivity”.

Regarding “QVQLVESGGGLVQAGGSLRLSCAASGFIFGDYAMGWYRQAPGKERELVAAITWSGGRTYYADSVKGRFTISRDNAKNTVYLQMNSLKPEDTAVYYCSAVWYTSRQKYDYWGQGTQVTVSS”, the “polyreactivity (PSR sort gate)” value is “low polyreactivity”.

Regarding “QVQLVESGGGLVQAGGSLRLSCAASGFIFGFNAMGWYRQAPGKERELVAVFNRSGSRTYYADSVKGRFTISRDNAKNTVYLQMNSLKPEDTAVYYCNAYPRYQYWGQGTLVTVSS”, the “polyreactivity (PSR sort gate)” value is listed as “high polyreactivity”.

With “QVQLVESGGGLVQAGGSLRLSCAASGFIFGGNAMGWYRPAPGKERELVAAISRRGGNTYYADSVKGRFTISRDNAKITVYLQMNSLKPEDTAVYYCATGTSYWYLWAYDYWGQGTQVTVSS”, the “polyreactivity (PSR sort gate)” value is on record as “high polyreactivity”.

With “QVQLVESGGGLVQAGGSLRLSCAASGFIFGGNVMGWYRQAPGKEREFVAAITDGDGSTYYADSVKGRFTISRDNAKNTVYLQMNSLKPEDTAVYYCAADVYYADVYPVEYWGQGTQVTVSS”, the “polyreactivity (PSR sort gate)” value is “high polyreactivity”.

As to “QVQLVESGGGLVQAGGSLRLSCAASGFIFGGYAMGWSRQAPGKERELVADISSSGGSTYYADSVKGRFTLSRDNAKNTVYLQMNSLKPEDTAVYDCAKVGWSRRYYYWGQGTQVTVSS”, the “polyreactivity (PSR sort gate)” value was “high polyreactivity”.

With “QVQLVESGGGLVQAGGSLRLSCAASGFIFGGYAMGWYRPAPGKERELVAAISSSGGSTYYADSVKGRFTISRDNAKNTVYLQMNSLKPEDTAVYYCAARIQSVSSGRWFDYWGQGTQVTVSS”, the “polyreactivity (PSR sort gate)” value is on record as “high polyreactivity”.
